For one test, the target named is T1, human IL-18BP (human, UniProt O95998 31-194).
T1 construct: UniProt printed as 095998; also called hIL-18BP
T1 sequence: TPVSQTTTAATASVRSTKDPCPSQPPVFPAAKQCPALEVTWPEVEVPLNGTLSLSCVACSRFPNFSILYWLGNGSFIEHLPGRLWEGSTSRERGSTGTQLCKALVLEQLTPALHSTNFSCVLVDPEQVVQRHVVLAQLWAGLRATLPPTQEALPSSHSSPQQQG
Briefly: BLI, apparent KD.

For another test, the target named is T2, cynomolgus IL-18BP (cynomolgus monkey).
T2 construct: also called cyno IL-18BP; cyIL-18BP
T2 chain: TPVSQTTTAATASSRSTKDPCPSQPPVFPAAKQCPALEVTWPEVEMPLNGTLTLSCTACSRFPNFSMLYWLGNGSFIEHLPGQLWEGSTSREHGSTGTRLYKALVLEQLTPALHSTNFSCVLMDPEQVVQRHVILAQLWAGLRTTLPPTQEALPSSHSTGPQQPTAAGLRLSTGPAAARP
Briefly: BLI, apparent KD.

The record followed here is patent US20250368745A1 (published 2025).

B1: SA301a HC-V100aR (antibody, name in Kabat numbering, V domains shown)
VH: QVQLQESGPGLVKPSQTLSLTCTVSGYSITSDYNSHWIRQPPGKGLEWIGYIHYSGSTNYNPSLKSRVTISRDTSKNQFSLKLSSVTAADTAVYYCARNYGSIYRNYFDYWGQGTLVTVSS
VL: EIVLTQSPATLSLSPGERATLSCSASSSVSYMYWYQQKPGQAPRPLIYRTSNLASGIPARFSGSGSGTDFTLTISSLEPEDFAVYYCQQYHSYPTFGGGTKVEIK
notes: IgG1 kappa
B1: the Kd with human IL-18BP turned out to be 0.19 nM; with cynomolgus IL-18BP, 0.08 nM.

B2: SA301a HC-Y100Q (antibody, V domains shown)
VH: QVQLQESGPGLVKPSQTLSLTCTVSGYSITSDYNSHWIRQPPGKGLEWIGYIHYSGSTNYNPSLKSRVTISRDTSKNQFSLKLSSVTAADTAVYYCARNYGSIQVNYFDYWGQGTLVTVSS
VL: EIVLTQSPATLSLSPGERATLSCSASSSVSYMYWYQQKPGQAPRPLIYRTSNLASGIPARFSGSGSGTDFTLTISSLEPEDFAVYYCQQYHSYPTFGGGTKVEIK
For B2, the Kd came out at 1.88 nM with human IL-18BP and 3.58 nM with cynomolgus IL-18BP.

B3: SA301a HC-Y100H (antibody, V domains shown)
VH: QVQLQESGPGLVKPSQTLSLTCTVSGYSITSDYNSHWIRQPPGKGLEWIGYIHYSGSTNYNPSLKSRVTISRDTSKNQFSLKLSSVTAADTAVYYCARNYGSIHVNYFDYWGQGTLVTVSS
VL: EIVLTQSPATLSLSPGERATLSCSASSSVSYMYWYQQKPGQAPRPLIYRTSNLASGIPARFSGSGSGTDFTLTISSLEPEDFAVYYCQQYHSYPTFGGGTKVEIK
Consider B3, for which the Kd was found to be 1.3 nM with human IL-18BP and 1.1 nM with cynomolgus IL-18BP.

B4: SA301a HC-Y100L (antibody, V domains shown)
VH: QVQLQESGPGLVKPSQTLSLTCTVSGYSITSDYNSHWIRQPPGKGLEWIGYIHYSGSTNYNPSLKSRVTISRDTSKNQFSLKLSSVTAADTAVYYCARNYGSILVNYFDYWGQGTLVTVSS
VL: EIVLTQSPATLSLSPGERATLSCSASSSVSYMYWYQQKPGQAPRPLIYRTSNLASGIPARFSGSGSGTDFTLTISSLEPEDFAVYYCQQYHSYPTFGGGTKVEIK
Regarding B4, the Kd with human IL-18BP turned out to be 1.06 nM; with cynomolgus IL-18BP it was 1.41 nM.

B5: SA301a HC-Y100P (antibody, V domains shown)
VH: QVQLQESGPGLVKPSQTLSLTCTVSGYSITSDYNSHWIRQPPGKGLEWIGYIHYSGSTNYNPSLKSRVTISRDTSKNQFSLKLSSVTAADTAVYYCARNYGSIPVNYFDYWGQGTLVTVSS
VL: EIVLTQSPATLSLSPGERATLSCSASSSVSYMYWYQQKPGQAPRPLIYRTSNLASGIPARFSGSGSGTDFTLTISSLEPEDFAVYYCQQYHSYPTFGGGTKVEIK
Turning to B5, the values for the Kd in the test with human IL-18BP and with cynomolgus IL-18BP were 0.63 nM and 2.4 nM, respectively.

B6: SA301a HC-Y100R (antibody, V domains shown)
VH: QVQLQESGPGLVKPSQTLSLTCTVSGYSITSDYNSHWIRQPPGKGLEWIGYIHYSGSTNYNPSLKSRVTISRDTSKNQFSLKLSSVTAADTAVYYCARNYGSIRVNYFDYWGQGTLVTVSS
VL: EIVLTQSPATLSLSPGERATLSCSASSSVSYMYWYQQKPGQAPRPLIYRTSNLASGIPARFSGSGSGTDFTLTISSLEPEDFAVYYCQQYHSYPTFGGGTKVEIK
With B6, the Kd with human IL-18BP was 1.32 nM; in the test with cynomolgus IL-18BP it was 2.06 nM.

B7: SA301a HC-Y100I (antibody, V domains shown)
VH: QVQLQESGPGLVKPSQTLSLTCTVSGYSITSDYNSHWIRQPPGKGLEWIGYIHYSGSTNYNPSLKSRVTISRDTSKNQFSLKLSSVTAADTAVYYCARNYGSIIVNYFDYWGQGTLVTVSS
VL: EIVLTQSPATLSLSPGERATLSCSASSSVSYMYWYQQKPGQAPRPLIYRTSNLASGIPARFSGSGSGTDFTLTISSLEPEDFAVYYCQQYHSYPTFGGGTKVEIK
Regarding B7, the values for the Kd with human IL-18BP and in the test with cynomolgus IL-18BP were 0.94 nM and 1.02 nM, respectively.

B8: SA301a HC-Y100F (antibody, V domains shown)
VH: QVQLQESGPGLVKPSQTLSLTCTVSGYSITSDYNSHWIRQPPGKGLEWIGYIHYSGSTNYNPSLKSRVTISRDTSKNQFSLKLSSVTAADTAVYYCARNYGSIFVNYFDYWGQGTLVTVSS
VL: EIVLTQSPATLSLSPGERATLSCSASSSVSYMYWYQQKPGQAPRPLIYRTSNLASGIPARFSGSGSGTDFTLTISSLEPEDFAVYYCQQYHSYPTFGGGTKVEIK
With B8, the Kd with human IL-18BP is 0.1 nM; with cynomolgus IL-18BP it was 0.26 nM.

B9: SA301a HC-Y100N (antibody, V domains shown)
VH: QVQLQESGPGLVKPSQTLSLTCTVSGYSITSDYNSHWIRQPPGKGLEWIGYIHYSGSTNYNPSLKSRVTISRDTSKNQFSLKLSSVTAADTAVYYCARNYGSINVNYFDYWGQGTLVTVSS
VL: EIVLTQSPATLSLSPGERATLSCSASSSVSYMYWYQQKPGQAPRPLIYRTSNLASGIPARFSGSGSGTDFTLTISSLEPEDFAVYYCQQYHSYPTFGGGTKVEIK
With B9, the Kd with human IL-18BP was found to be 0.9 nM; with cynomolgus IL-18BP, 3.59 nM.

B10: SA301a HC-Y100G (antibody, V domains shown)
VH: QVQLQESGPGLVKPSQTLSLTCTVSGYSITSDYNSHWIRQPPGKGLEWIGYIHYSGSTNYNPSLKSRVTISRDTSKNQFSLKLSSVTAADTAVYYCARNYGSIGVNYFDYWGQGTLVTVSS
VL: EIVLTQSPATLSLSPGERATLSCSASSSVSYMYWYQQKPGQAPRPLIYRTSNLASGIPARFSGSGSGTDFTLTISSLEPEDFAVYYCQQYHSYPTFGGGTKVEIK
For B10, the results for the Kd in the test with human IL-18BP and with cynomolgus IL-18BP were 0.51 nM and 0.48 nM, respectively.

B11: SA301a HC-Y100D (antibody, V domains shown)
VH: QVQLQESGPGLVKPSQTLSLTCTVSGYSITSDYNSHWIRQPPGKGLEWIGYIHYSGSTNYNPSLKSRVTISRDTSKNQFSLKLSSVTAADTAVYYCARNYGSIDVNYFDYWGQGTLVTVSS
VL: EIVLTQSPATLSLSPGERATLSCSASSSVSYMYWYQQKPGQAPRPLIYRTSNLASGIPARFSGSGSGTDFTLTISSLEPEDFAVYYCQQYHSYPTFGGGTKVEIK
Turning to B11, the figures for the Kd with human IL-18BP and with cynomolgus IL-18BP were 0.56 nM and 3.65 nM, respectively.

B12: SA301a HC-Y100S (antibody, V domains shown)
VH: QVQLQESGPGLVKPSQTLSLTCTVSGYSITSDYNSHWIRQPPGKGLEWIGYIHYSGSTNYNPSLKSRVTISRDTSKNQFSLKLSSVTAADTAVYYCARNYGSISVNYFDYWGQGTLVTVSS
VL: EIVLTQSPATLSLSPGERATLSCSASSSVSYMYWYQQKPGQAPRPLIYRTSNLASGIPARFSGSGSGTDFTLTISSLEPEDFAVYYCQQYHSYPTFGGGTKVEIK
For B12, the Kd with human IL-18BP is 0.72 nM; in the test with cynomolgus IL-18BP, 3.27 nM.

B13: SA301a HC-Y100V (antibody, V domains shown)
VH: QVQLQESGPGLVKPSQTLSLTCTVSGYSITSDYNSHWIRQPPGKGLEWIGYIHYSGSTNYNPSLKSRVTISRDTSKNQFSLKLSSVTAADTAVYYCARNYGSIVVNYFDYWGQGTLVTVSS
VL: EIVLTQSPATLSLSPGERATLSCSASSSVSYMYWYQQKPGQAPRPLIYRTSNLASGIPARFSGSGSGTDFTLTISSLEPEDFAVYYCQQYHSYPTFGGGTKVEIK
In the case of B13, the values for the Kd with human IL-18BP and with cynomolgus IL-18BP were 1.59 nM and 2.55 nM, respectively.

B14: SA301a HC-V100aY (antibody, name in Kabat numbering, V domains shown)
VH: QVQLQESGPGLVKPSQTLSLTCTVSGYSITSDYNSHWIRQPPGKGLEWIGYIHYSGSTNYNPSLKSRVTISRDTSKNQFSLKLSSVTAADTAVYYCARNYGSIYYNYFDYWGQGTLVTVSS
VL: EIVLTQSPATLSLSPGERATLSCSASSSVSYMYWYQQKPGQAPRPLIYRTSNLASGIPARFSGSGSGTDFTLTISSLEPEDFAVYYCQQYHSYPTFGGGTKVEIK
notes: IgG1 kappa
Take B14: the Kd with human IL-18BP turned out to be 27.7 nM; in the test with cynomolgus IL-18BP, 0.58 nM.
